Experimental data reported in US7279548B2, “Identification and isolation of novel polypeptides having WW domains and methods of using same” (Cytogen Corporation, priority 1996, dated 2007).
No end group written: not given here.

Columns and labels:
[1] = target: T1, WW domains of WWP1 expressed as GST fusion proteins (Homo sapiens, UniProt Q9H0M0); assay: ELISA based cross affinity mapping, WW domains of WWP1; type: binding; conditions: GST fusion protein
T1 construct: twelve individual novel WW domains of WWP1, WWP2, WWP3 and WWP4 which were expressed as GST fusion proteins; made in house
Experimental: (§1) The 16 day mouse embryo cDNA expression library was diluted 1:1000 in SM solution (100 mM NaCl, 8 mM MgSOv4, 50 mM Tris HCl pH 7.5, 0.01% gelatin). To a sterile test tube, 2 μl of diluted mouse embryo library, 100 μl of 10 mM CaCl2, 100 μl of 10 mM MgCl2 and 100 μl of BL21(DE3)pLysE bacterial cells (grown overnight) were added and incubated for 30 minutes at 37° C. The contents of the tube were mixed with 3 ml of 0.6% top agarose, containing […] chloramphenicol, and poured onto a 2xYT plate (90 mm diameter). For a large primary screen, 10–20 plates were prepared with 3×10^4 pfu per plate. After 6 hours incubation at 37° C., a nitrocellulose filter soaked in 10 mM isopropyl-β-D-thiogalactopyranoside (IPTG) was overlaid on each plate and incubated 3–6 hours at 37° C. Before the filters were removed from the plates, they were marked asymmetrically with India ink in a 18 gauge syringe needle. The plates were stored at 4° C. until ready for the secondary screen. The filters were washed with PBS (137 mM NaCl, 2.7 mM KCl, 4.3 mM Na2HPO4, 1.4 mM KH2PO4)-0.05% Triton X-100 three times at room temperature, 15 minutes each wash, and then placed in a plastic bag containing non-specific blocking solution (PBS-2% BSA) for one hour. In the meantime, 1 ml of 1 mM biotinylated peptide in PBS-0.1% Tween 20 was added to 20 ml of 1 mg/ml streptavidin-alkaline phosphatase (SA-AP) in PBS-0.1% Tween 20 and incubated at 4° C. for 30 minutes. […] Excess biotin-binding sites would then be blocked by addition of 500 pmol biotin. […] Ten μl of 0.1 mM biotin would then be added, and the solution incubated for an additional 15 min.
(§2) To determine the ligand preferences of the novel WW omain-containing clones described in Sections 6.1 and 6.1.1, as well as addressing the issue of whether peptides containing PPPPY (SEQ ID NO:3)-like motifs derived from a variety of proteins could also serve as recognition units and bind to these clones, a cross affinity mapping experiment was performed (FIGS. 15A–D). The peptides shown in FIGS. 15A–D were synthesized, biotinylated, complexed with streptavidin-alkaline phosphatase, and tested in an ELISA based assay for their ability to bind to the twelve individual novel WW domains of WWP1, WWP2, WWP3 and WWP4 which were expressed as GST fusion proteins. The ELISA based cross-affinity experiments were performed essentially as described by Sparks et al. (1996, Proc. Natl. Acad. Sci. 93:1540–1544) with the following modifications. Briefly, microtiter wells were coated with 1–5 μg of fusion protein in 100 mM NaHCO3, blocked with SuperBlock TBS (Pierce) and washed four times with PBS, 0.05% Tween 20. Specific peptide-streptavidin/alkaline phosphatase complexes were added as above and unbound complexes washed five times with PBS, 0.05% Tween 20. Following addition of PNP substrate (p-nitrophenyl phosphate, Kirkegard & Perry Labs), peptide binding was quantitated after 30 min. at O.D. 405 nm. Relative binding measurements from three independent determinations were assigned to a scale as follows: O.D. units 0–0.5=(−), 0.5–1.0=(+), 1.0–2.0=(++), 2.0–3.0=(+++), >3.0=(++++). Peptide binding to human Fyn and Lyn SH3 and SH2 domains was assessed by a filter binding assay (see Section 6.1 and Sparks et al., 1996, Proc. Natl. Acad. Sci 93:1540–1544). Peptide sequences used in cross-affinity experiments correspond to segments of the following genes: RasGap (Database accession # P20936), AP-2 (P05549), p53BP-2 (U09582), IL-6Rα (P22272), voltage-gated chloride channel CLCN5 (X91906), IL-2Rγ (D111086), RSV (D10652), HTLV-1 (D13784), β-dystroglycan (L19711), Formin (X53599), amiloride-sensitive epithelial Na^+ channel ENaCα (P37089), ENaCβ (X87159) and ENaCγ (X87160), muscarinic acetylcholine receptor M4 AChR (P08173), and c-Abl (P00522). Src and Crk SH3 binding peptide sequences were derived from a phage display random peptide library screen (Section 6.1 and Sparks et al., 1996, Proc. Natl. Acad. Sci. 93:1540–1544).

[2] = tested on: WW domains of WWP1 expressed as GST fusion proteins; assay: as above; type: binding, human; conditions: biotinylated peptide-streptavidin/alkaline phosphatase complex; GST fusion proteins; ELISA
Experimental: as §1, §2

[3] = target: T2, WW domains of WWP2 expressed as GST fusion proteins (Homo sapiens, UniProt O00308); assay: ELISA based cross affinity mapping, WW domains of WWP2; type: binding
T2 construct: twelve individual novel WW domains of WWP1, WWP2, WWP3 and WWP4 which were expressed as GST fusion proteins; made in house
Experimental: as §1, §2

[4] = tested on: WW domains of WWP2 expressed as GST fusion proteins; assay: as above; type: binding, human; conditions: biotinylated peptide-streptavidin/alkaline phosphatase complex; GST fusion proteins; ELISA
Experimental: as §1, §2

[5] = target: T3, WW domains of WWP4 expressed as GST fusion proteins (Homo sapiens, UniProt Q96PU5); assay: ELISA based cross affinity mapping, WW domains of WWP4; type: binding; conditions: GST fusion protein
T3 construct: twelve individual novel WW domains of WWP1, WWP2, WWP3 and WWP4 which were expressed as GST fusion proteins; made in house
Experimental: as §1, §2

[6] = tested on: WW domains of WWP4 expressed as GST fusion proteins; assay: as above; type: binding, human; conditions: biotinylated peptide-streptavidin/alkaline phosphatase complex; GST fusion proteins; ELISA
Experimental: as §1, §2

[7] = tested on: twelve individual novel WW domains of WWP1, WWP2, WWP3 and WWP4; assay: ELISA based cross affinity mapping, whole panel of novel WW domains; type: binding, human; conditions: biotinylated peptide-streptavidin/alkaline phosphatase complex, GST fusion proteins
Experimental: as §1, §2

## bWW059: biotinylated peptide corresponding to the wild-type PPPPY-like motif in the HECT domain of WWP4 (NRLDLPPYETFED; also: biotinylated, site not given here)
[1]
  binding to individual WW domain WWP1.1: binds
  binding to individual WW domain WWP1.4: binds
[2]
  binding to WW domains of WWP1: bind to individual WW domains
[3]; GST fusion protein
  binding to individual WW domain WWP2.1: binds
  binding to individual WW domain WWP2.2: binds
  binding to individual WW domain WWP2.4: binds
[3]; individual WW domain WW2.4, GST fusion protein
  O.D. after 30 minutes at 405 nm: 3.0
[4]
  binding to WW domains of WWP2: bind to individual WW domains
[5]
  binding to individual WW domain WWP4.1: binds
  binding to individual WW domain WWP4.2: binds
  binding to individual WW domain WWP4.3: binds
[6]
  binding to WW domains of WWP4: bind to individual WW domains

## CLCN5: peptide from the voltage-gated renal chloride channel CLCN5 (X91906) (SPPLPPYTPP)
[7]
  binding to the novel WW domains (WWP1, WWP2, WWP3, WWP4 panel): bound to WW domains from one or more of the four novel clones
[1]
  binding to individual WW domain WWP1.4: appreciable binding
[3]; GST fusion protein
  binding to individual WW domain WWP2.4: appreciable binding

## WBP-1-Pro2: alanine substitution variant of WBP-1 at the second proline residue of the PPPPY motif (SGSGPGTPAPPYTVGPGY)
[1]
  binding to individual WW domain WWP1.2: did not abolish binding
[3]; GST fusion protein
  binding to individual WW domain WWP2.3: did not abolish binding
[6]
  binding to WW domains of WWP4: loss of binding activity
